The RNAGym collection of RNA variant scans (doi:10.1073/pnas.2313332121)
This sample holds only a part of the variants without activity.

B1: TPR 5TU (parent)
chain: GGAUCUUCUCGAUCUAACAAAAAAGACAAAUCUGCCACAAAGCUUGAGAGCAUCUUCGGAUGCAGAGGCGGCAGCCUUCGGUGGCGCGAUAGCGCCAACGUUCUCAACUAUGACACGCAAAACGCGUGCUCCGUUGAAUGGAGUUUAUCAUG

Variants of: B1
Assay: polymerase ribozyme fitness, log enrichment relative to wild type (log ratio); higher = more active; in vitro selection for triplet polymerase activity
In short: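 A single round of triplicate in vitro selection, including frozen incubation at −7 °C, was applied to PCR-built, transcribed mutant libraries of each subunit of a heterodimeric triplet polymerase ribozyme. Illumina sequencing of input and output libraries retained genotypes with ≥10 input reads and ≥1 read per output. Fitness is the base-2 logarithm of genotype enrichment divided by wild-type enrichment, from inverse-variance-weighted replicate averages.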

First: GGAUCUUCUCGAUCUAACAAAAAAGACAAAUCUGCCACAAAGCUUGAAAGCAUCUUCGGAUGCAGAGGCGGCAGCCUUCGGUGGCGCAAUAGCGCCAACGUUCUGAACUAUGACUCGCAAAACGCGUGCUCCGUUGAAUGGAGUUUAUCAUG [G48A G88A C105G A115U]
Second: GGAUCUUCUCGAUCUAACAAAAAAGACAAAUCUGCCACAAAGCUUGAAAGCAUCUUCGGAUGCAGAGGCGGCAGCCUUCGGUCGCGCGAUAGCGCCAACGUUCUCAACUAUGACACGCAAAACGCGUGCUCCGUUGAAUGGAGUUUAUCAUG [G48A G83C]
The “polymerase ribozyme fitness (log ratio)” value of the first is lower: -3.86 for the first, -1.78 for the second.

GGAUCUUCUCGAUCUAACAAAAAAGACAAAUCUGCCACAAAGCUUGAAAGCAUCUUCGGAUGCAGAGGCGGCAGCCUUCGGUGGCACGCUAGCACCAACGUUCUCAACUAUGACACGCAAAACGCGUGCUCCGUUGAAUGGAGUUUAUCAGG [G48A G86A A89C G94A U151G] and GGAUCUUCUCGAUCUAACAAAAAAGACAAAUCUGCCACAAAGCUUGAAAGCAUCUUCGGAUGCAGAGGCGGCAGCCUUCGGUGACGCGAUAGCGCCAACGUUCUCACCUAUGACACGGAAAACGCGUGCUCCGUUGAAUGGAGUUUAUCAUG [G48A G84A A107C C118G] cannot be ordered by “polymerase ribozyme fitness (log ratio)” value: at most -4.2 for the first, at most -4.2 for the second.

Compared with GGAUCUUCUCGAUCUAACAAAAAAGACAAAUCUGCCACAAAGCUUGAAAGCAUCUUCGGAUGCAGAGGCGGCAGCAUUCGGUGGCGCGAUAGCCCCAACGUUCUCGACUAUGACACGCAAAACGCGAGCUCCGUUGAAUGCAGUUUAUCAUG [G48A C76A G94C A106G U127A G141C], GGAUCUUCUCGAUCUAACAAAAAAGACAAAUCUGCCACAAAGCUUGAAACCAUCUUCGGAUGCAGAGGCGGCAGCCUUCGGUGGCGCGAUAGCGCCAACGUUCUCAACUAUGACACGCAAAACGCGUGCUCCGUUGAAUGGAGUUUAUCAUG [G48A G50C] is higher in “polymerase ribozyme fitness (log ratio)” value: at most -4.2 for the first, -3.83 for the second.

Going from GGAUCUUCUCGAUCUAACAAAAAAGACAAAUCUGCCACAAAGCUUGAAAGCAUCUUCGGAUGCAGAGGCGGCAGCCUUCCGUGGCGCGAUAGCACUAAGGUUCUCAACUAUGACACGCAAAACGCGUGCUCCGUUGAAUGGAGUUUAUCAUG [G48A G80C G94A C96U C99G] to GGAUCUUCUCGAUCUAACAAAAAAGACAAAUCUGCCACAAAGCUUGAAAGCAUCUUCGGAUGCAGAGGCGGCAGCCUUCGGUGGGGCGAUAGCGCCAUUGUUCUCAACUAUGACACGCAAAACGCGUGCUCCGUUGAAUGGAGUUUAUCAUG [G48A C85G A98U C99U], the “polymerase ribozyme fitness (log ratio)” value rises from -3.97 to -3.36.

First: GGAUCUUCUCGAUCUAACAAAAAAGACAAAUCUGCCACAAAGCUUGAAAGCAUCUUCGAGUGCAGAGGCGGCAGCCUUCGGUGGCGCGAUAGCGCCGACGUUCUCAACUAUGACACGCAAAACGCGUGCUCCGUUGAAUGGAGUUUAUCAUG [G48A G59A A60G A97G]
Second: GGAUCUUCUCGAUCUAACAAAAAAGACAAAUCUGCCACAAAGCUUGAAAGCAUCUUCGAAUGCAGAGGCGGCAGCCUUCGGUGGCGCCAUAGCGCCAACGUUCUCGACUAUGACACGCAAAACGCGUGCUCCGUUGAAUGGAGUUUACCAUG [G48A G59A G88C A106G U148C]
The “polymerase ribozyme fitness (log ratio)” value of the first is higher: -3.58 for the first, at most -4.2 for the second.

Compared with GGAUCUUCUCGAUCUAACAAAAAAGACAAAUCUGCCACAAAGCUUGAAAGCAUCUUCGAAUGCAGAGGCGGCAGCCUUCGGUGGCGCGAUAGCGCCAACGUUCUCAACUAUGACACGCAAAACGCGUGCUCCGUUGAAUGGAGUUUAUCAUG [G48A G59A], GGAUCUUCUCGAUCUAACAAAAAAGACAAAUCUGCCACAAAGCUUGAAAGCAUCUUCGCAUGCAGAGGCGGCAGCCUUCGGUGGCGCGAUAGCGCCAACGUUCUCAACUAUGACACGCAAAACGCGUGCUCCGUUGAAUGGAGUUUAUCAUG [G48A G59C] is lower in “polymerase ribozyme fitness (log ratio)” value: -0.452 for the first, -0.874 for the second.

GGAUCUUCUCGAUCUAACAAAAAAGACAAAUCUGCCACAAAGCUUGAAAGCAUCUUCGUAUGCAGAGGCGGCAGCCUUCGGUGGCGCGAUAGCACCAACGUUCUCAACUAUGAAACGCAAAACGAGUGCUCCGUUGAAUGGAGUUUAUCAUG [G48A G59U G94A C114A C125A] and GGAUCUUCUCGAUCUAACAAAAAAGACAAAUCUGCCACAAAGCUUGAAAGCAUCUUCGGAUGCAGAGGCGGCAGCCUUCGGUUGCGCGAUAGCGCCAGCGUUCUCAACUAUGACACGCAAAACGCGUGCUCCGUUGAAUCGAGUUUAUCAUG [G48A G83U A98G G140C] cannot be ordered by “polymerase ribozyme fitness (log ratio)” value: at most -4.2 for the first, at most -4.2 for the second.

First: GGAUCUUCUCGAUCUAACAAAAAAGACAAAUCUGCCACAAAGCUUGAAAGCAUCUUCGGAUGCAGAGGCGGCAGCCUUCGGUGGCUCGAUAGCGUCAACGUUCUCAACUAUGACACGCAAAAAGCGUGCUCCGUUGAAUGGAGUUUAUCAUG [G48A G86U C95U C123A]
Second: GGAUCUUCUCGAUCUAACAAAAAAGACAAAUCUGCCACAAAGCUUGAAAGCAUCUUCGGAUGCAGAGGCGGCAGCCUUCGGUGGCGCGAUAGCGCCAAUGUUCUCAACUAAGACACGCAAAACGCGUGCUCCGUUGGAUGGAGUUUCUCAUG [G48A C99U U111A A137G A147C]
The “polymerase ribozyme fitness (log ratio)” value of the first is higher: -2.89 for the first, at most -4.2 for the second.

Going from GGAUCUUCUCGAUCUAACAAAAAAGACAAAUCUGCCACAAAGCUUGAAAGCAUCUUCGCAUGUAGAGGCGGCAGCCUUCGGUGGCCCGAUAGCGCCAACGUUCUCAACUAUGACACGCAAAACGCGUGCUCCGUUGAAUGGAGUUUAUCAUG [G48A G59C C63U G86C] to GGAUCUUCUCGAUCUAACAAAAAAGACAAAUCUGCCACAAAGCUUGAAAACAUCUGCGGAUGCAGAGGCGGCAGCCUUCGGUGGCGCGAUAGCGCCAACGUUCUCAACUAUGACACGCAAAACGCGUGCUCCGUUGAAUGGAGUUUACCAUG [G48A G50A U56G U148C], the “polymerase ribozyme fitness (log ratio)” value falls from -3.98 to at most -4.2.

With GGAUCUUCUCGAUCUAACAAAAAAGACAAAUCUGCCACAAAGCUUGAAAGCAUCUUCGGAUGCAGAGGCGGCAGCCUUCGGUGGCGUGAUUGUGCCAACGUUCUCAACUAUGACACGCAAAACGCGUGCUCCGUUGAAUGGAGUUUAUCAUG [G48A C87U A91U C93U] the “polymerase ribozyme fitness (log ratio)” value was at most -4.2.
